Laboratory results as given in the supplement of paper PMC12042874.
± gives the uncertainty stated by the source.

Assay: amyloid nucleation score (Sup35N fusion, yeast selection) (log enrichment); library NNK3; higher = more nucleation; inactive = no reads after selection
Summary of the method: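 Growth for 7 days at 30°C on medium lacking adenine and uracil followed a 24-hour induction with 100 μM copper sulfate of psi-negative yeast expressing peptides of 20 random codons fused to Sup35N. Input and output plasmid inserts were sequenced with Illumina, and sequences with under 100 input reads were excluded. Nucleation score is the DiMSum log enrichment of output over input reads, centred on the mode score of non-aggregating sequences.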

| Substance | amyloid nucleation score |
| --- | --- |
| TKGKLLSKHLGFVRCRVHRS | inactive |
| PEVCEPLLGFLCFCPVNSVP | inactive |
| LQISSMIFELYIFDLMMVM | inactive |
| RDWLIMSLGVVLVWFLRYQY | inactive |
| PGLLLNRMLDARFM | inactive |
| YSRSTWVRIWFLLVSLLPVG | inactive |
| CHVLWGCCIRSQVCCSAYNV | 2.06 ± 0.073 |
| KDCASGSRSTAIFAFCSGAF | 0.281 ± 0.27 |
| VEQMLVFDTPLSYLVKQVKF | inactive |
| LRLCGAMPDRCLW | inactive |
| AFDTILAEYLCYFLL | 1.7 ± 0.1 |
| YDTLDTKCAVADKEIFCRIP | inactive |
| GANFVCSVECRLVRRNSRYD | 0.511 ± 0.21 |
| LNLMD | inactive |
| TEDHH | inactive |
| EVQVFSFDTGCMHSHNLYAS | inactive |
| VFVFDVLFGLLNMANFREVD | -0.713 ± 0.88 |
| LRRYALLVNAAQKEMRYSSS | -0.616 ± 1.1 |
| ARVLDAWSYRVARKNLWESL | inactive |
| DYTLDANFEGCHGQLTYMND | inactive |
| RGYSANWNLMVAVTCGTIH | -0.422 ± 0.71 |
| YIGVRGFLLYPFNRVFEVMM | inactive |
| FGVVWGSKLFCRFGSVTIYP | inactive |
| SRAMVKVRSNFRQRK | inactive |
| SIYCTLRVVGT | inactive |
| KISFWVRERFNYRCTIGIEC | inactive |
| NCRVMITVIYTICNVVFLSC | inactive |

| Substance | amyloid nucleation score |
| --- | --- |
| MRCGRIDGDFGFAPRLRGTM | 0.902 ± 0.14 |
| FKYLWADREVNVGQKHSVIG | -0.174 ± 0.7 |
| NHYCDFAVWSTFNLTLHHSL | inactive |
| LILYSLGNNTHEMIYLWSNR | inactive |
| HNCLVLVCDTCLSVYWNFSS | 2.83 ± 0.052 |
| FGVSFKYFCVQEQLAKDSVA | inactive |
| LTFVHNWFDPLCLHRNSAMN | inactive |
| IKPCGCSVLDIRT | inactive |
| YINLFLLSGSFVFRVDHHFI | 2.47 ± 0.088 |
| YFTSEPLSAPSQWGRVKGSA | inactive |
| SVAGRCVSWNQRGKGLRNAR | inactive |
| VIFISILPLRKCSDKWEDNN | inactive |
| IFPNLACSFRFCTRPYRSSM | 0.571 ± 0.25 |
| CYLCVAAGWSMATPLRGGLA | inactive |
| LLAMPNQRWGTTLLYVQDWF | inactive |
| DAGYDVVLGSMAMVSVGTCL | inactive |
| IIFFYGGS | 1.9 ± 0.08 |
| ILEYAVVNHQVNLVIVSIGH | 1.65 ± 0.068 |
| HEVAAPRRRHSSMLVAGSAG | inactive |
| IHVDLYN | inactive |
| FAYITHLKKYKSWTVPWTYY | inactive |
| TMYVCWSMFEAIWDINHNTS | -0.26 ± 0.64 |
| VKDYNYKFWALPSVPREWVF | inactive |
| VIGRTASDGVRCCRVGMMRR | inactive |
| CNNLFFSWLKFMLIGIMGH | inactive |
| PSSLKYSKRVLSVSIHWERL | inactive |
| MEGFSMIIRDAWKFTCVVEW | inactive |

| Substance | amyloid nucleation score |
| --- | --- |
| HFVVKV | 1.27 ± 0.089 |
| MMADDVSLICGCGRQ | 1.01 ± 0.19 |
| GGSCTDSVVIEGI | 0.252 ± 0.24 |
| SWLNKIAKVIST | inactive |
| TKWRLTP | inactive |
| QVNKFCYCMVDKLVVVH | 2.27 ± 0.074 |
| LSLTYVSPHA | 0.968 ± 0.17 |
| TLISYFEG | inactive |
| RCEFIFS | inactive |
| RLMVL | inactive |
| HWYGTMLKLFNVLKPMGPKI | inactive |
| DEIPCDVRGLMPTRVSTLNL | inactive |
| RCFKLLNSTECCSKWVRAFS | inactive |
| NLWLECNLESSQRSSLFTKL | inactive |
| ISDTYSWCRYLVIGNYAQLG | 0.463 ± 0.23 |
| SSNDPQHHVDAGEADQRSRV | inactive |
| VNYRTQRRTQYTQCTRKVGG | inactive |
| FVGRFCMFNLGRCLPIVLGS | inactive |
| TYSIISENIVVFFNRM | 2.58 ± 0.059 |
| LHCSVSSQTELVPTENRGGW | inactive |
| SRGTRSK | inactive |
| FECMRELPRAPTKPGSWRHA | inactive |
| WDFGPEVLSE | inactive |
| TSQQHPASVSKGYMLRDG | inactive |
| FRCFYGTRSWRKECGESAFL | inactive |
